PMC12407261

Columns and labels:
[1] = target: Streptomyces lydicus Family 2B encapsulin shell protein Sl‐Enc1 with N‐terminal His‐tag (Streptomyces lydicus); test: affinity purification with mass spectrometry; two-gene operon co-expressed in E. coli BL21 (DE3), only one of the two shell proteins His-tagged; Ni-NTA then SEC; SDS-PAGE bands identified by tryptic digest and LC-MS; ratio by gel densitometry
[2] = target: Streptomyces lydicus Family 2B encapsulin shell protein Sl‐Enc2 with N‐terminal His‐tag (Streptomyces lydicus); test: cryo-EM structure; Sl‐Enc2 majority mixed sample, 2 mg/mL in 150 mM NaCl, 25 mM Tris pH 8.0; consensus refinement with icosahedral symmetry imposed, 2.59 Å

| Substance | apparent share of Sl‐Enc1 in the purified mixed shells (gel densitometry) [1] [%] | apparent share of Sl‐Enc2 in the purified mixed shells (gel densitometry) [1] [%] | stoichiometry N [2] |
| --- | --- | --- | --- |
| Streptomyces lydicus Family 2B encapsulin shell protein Sl‐Enc2, untagged (natural protein) | 60 | 40 |  |
| Streptomyces lydicus Family 2B encapsulin shell protein Sl‐Enc2 with N‐terminal His‐tag (natural protein) |  |  | 60 |
